Values quoted from earlier work in article PMC2757091.

Assays:
Chordin = Chordin (UniProt Q9H2X0)
Noggin = Noggin (UniProt Q13253)
Cerberus = Cerberus (UniProt O95813)
Sequence of Cerberus (O95813 18-267): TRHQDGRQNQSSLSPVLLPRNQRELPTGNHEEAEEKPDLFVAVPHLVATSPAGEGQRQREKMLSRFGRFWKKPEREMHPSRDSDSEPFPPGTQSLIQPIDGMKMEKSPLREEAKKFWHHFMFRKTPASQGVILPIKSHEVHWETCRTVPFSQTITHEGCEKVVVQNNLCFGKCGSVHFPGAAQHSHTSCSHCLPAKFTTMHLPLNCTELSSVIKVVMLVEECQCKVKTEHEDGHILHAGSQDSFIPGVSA

Sequence of BMP4 (P12644 293-408): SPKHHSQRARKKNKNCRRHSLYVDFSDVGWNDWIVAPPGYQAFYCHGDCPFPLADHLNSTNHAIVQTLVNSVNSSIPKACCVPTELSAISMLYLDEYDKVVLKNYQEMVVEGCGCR
Sequence of Noggin (Q13253 28-232): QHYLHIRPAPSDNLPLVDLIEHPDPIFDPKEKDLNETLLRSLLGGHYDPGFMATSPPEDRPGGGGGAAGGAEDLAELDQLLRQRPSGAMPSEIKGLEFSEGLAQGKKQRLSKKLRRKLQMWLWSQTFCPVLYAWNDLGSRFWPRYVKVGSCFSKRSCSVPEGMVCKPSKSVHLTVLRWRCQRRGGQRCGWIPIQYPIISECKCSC
Sequence of Chordin (Q9H2X0 27-955): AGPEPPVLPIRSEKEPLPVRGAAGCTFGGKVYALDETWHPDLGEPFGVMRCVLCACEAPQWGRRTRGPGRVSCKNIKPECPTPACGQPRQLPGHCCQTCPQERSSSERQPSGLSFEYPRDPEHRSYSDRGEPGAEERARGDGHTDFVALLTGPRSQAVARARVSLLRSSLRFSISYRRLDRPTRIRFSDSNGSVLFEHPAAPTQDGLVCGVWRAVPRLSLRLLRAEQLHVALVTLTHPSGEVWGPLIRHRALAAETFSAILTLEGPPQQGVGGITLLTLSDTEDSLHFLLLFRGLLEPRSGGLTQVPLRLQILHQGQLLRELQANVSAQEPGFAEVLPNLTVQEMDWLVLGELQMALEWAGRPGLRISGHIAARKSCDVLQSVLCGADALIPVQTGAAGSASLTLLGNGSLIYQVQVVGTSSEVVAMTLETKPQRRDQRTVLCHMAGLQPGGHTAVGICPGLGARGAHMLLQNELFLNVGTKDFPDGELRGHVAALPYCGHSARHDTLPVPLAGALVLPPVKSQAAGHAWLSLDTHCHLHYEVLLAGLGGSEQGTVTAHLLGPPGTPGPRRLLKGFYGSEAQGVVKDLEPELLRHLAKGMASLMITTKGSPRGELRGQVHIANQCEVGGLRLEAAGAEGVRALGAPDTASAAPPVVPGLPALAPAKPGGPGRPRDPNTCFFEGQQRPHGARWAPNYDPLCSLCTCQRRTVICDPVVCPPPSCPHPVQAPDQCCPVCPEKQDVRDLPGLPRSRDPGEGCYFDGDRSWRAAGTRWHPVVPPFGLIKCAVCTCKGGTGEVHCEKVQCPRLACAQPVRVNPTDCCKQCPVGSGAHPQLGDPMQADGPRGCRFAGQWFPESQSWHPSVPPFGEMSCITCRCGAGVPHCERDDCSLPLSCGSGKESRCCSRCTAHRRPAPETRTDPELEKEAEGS

What does the source list for BMP4 (from UniProt P12644)?
Kd (Chordin): 0.2 nM; Kd (Noggin): 0.02 nM; Kd (Cerberus): 0.6 nM
